Results taken from US20190085054A1.

What was measured:
Assay in all cases: cell-based or functional assay
[1] = target: human MMP2 (pro-MMP2 activated with APMA) (human) (UniProt P08253)
active MMP13 = active MMP13 (UniProt P45452)
[2] = target: catalytic domain of human MMP9 (human) (UniProt P14780)
Chain of catalytic domain of human MMP9 (human) (P14780 107-444 limits assumed): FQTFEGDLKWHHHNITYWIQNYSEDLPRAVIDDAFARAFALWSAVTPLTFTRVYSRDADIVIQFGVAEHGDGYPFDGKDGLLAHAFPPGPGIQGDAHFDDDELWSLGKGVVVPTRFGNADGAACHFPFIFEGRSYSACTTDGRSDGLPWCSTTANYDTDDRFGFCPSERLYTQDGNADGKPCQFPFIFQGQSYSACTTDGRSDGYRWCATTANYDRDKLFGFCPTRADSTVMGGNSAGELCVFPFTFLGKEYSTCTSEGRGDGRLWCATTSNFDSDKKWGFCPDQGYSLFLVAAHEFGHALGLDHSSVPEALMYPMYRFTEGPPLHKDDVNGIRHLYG

Chain of human MMP2 (pro-MMP2 activated with APMA) (human) (P08253 30-660): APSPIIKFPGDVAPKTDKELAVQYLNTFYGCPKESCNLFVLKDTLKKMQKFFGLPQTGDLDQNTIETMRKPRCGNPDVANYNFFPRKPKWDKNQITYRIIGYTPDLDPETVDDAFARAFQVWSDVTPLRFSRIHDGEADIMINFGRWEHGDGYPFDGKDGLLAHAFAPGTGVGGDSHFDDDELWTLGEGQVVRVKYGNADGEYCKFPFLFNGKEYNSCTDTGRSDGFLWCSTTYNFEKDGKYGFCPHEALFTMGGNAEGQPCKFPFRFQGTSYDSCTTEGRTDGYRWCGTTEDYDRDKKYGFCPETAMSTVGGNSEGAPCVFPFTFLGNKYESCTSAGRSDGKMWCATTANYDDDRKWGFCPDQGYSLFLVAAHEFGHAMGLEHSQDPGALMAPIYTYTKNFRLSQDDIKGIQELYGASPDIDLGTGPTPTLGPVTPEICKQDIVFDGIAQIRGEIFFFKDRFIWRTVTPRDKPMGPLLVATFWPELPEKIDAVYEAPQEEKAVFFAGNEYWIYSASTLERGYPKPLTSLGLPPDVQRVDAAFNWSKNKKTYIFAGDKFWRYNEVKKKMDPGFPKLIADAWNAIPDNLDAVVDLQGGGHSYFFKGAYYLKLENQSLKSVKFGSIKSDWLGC

Substance | MMP2 IC50 [1] [nM] | MMP13 IC50 (active MMP13) [nM] | MMP9 IC50 [2] [nM]
TIMP-3 mutein F57N | 0.5 | 0.5 | 4.6
TIMP-3 mutein K45S, F57N | 0.3 | – | 4
TIMP-3 mutein P56N, G58T | 1 | 3.1 | 2.3
TIMP-3 mutein T63N, K65T | 0.8 | 2.2 | 0.5
